Molecular target: HA-tagged GW182 (Drosophila) (UniProt Q8SY33)
Experiment: co-IP; lysate of stable S2 cells expressing HA-GW182 and Myc-HPat, treated with dsRNA against YFP (control), AGO1, NOT1, EDC4 and DCP1, or XRN1; anti-HA antibody (12CA5) cross-linked to protein A sepharose; washes with NET buffer with 300 mM NaCl; quantitative Western blot

Chain of UniProt Q8SY33 (Q8SY33 whole entry): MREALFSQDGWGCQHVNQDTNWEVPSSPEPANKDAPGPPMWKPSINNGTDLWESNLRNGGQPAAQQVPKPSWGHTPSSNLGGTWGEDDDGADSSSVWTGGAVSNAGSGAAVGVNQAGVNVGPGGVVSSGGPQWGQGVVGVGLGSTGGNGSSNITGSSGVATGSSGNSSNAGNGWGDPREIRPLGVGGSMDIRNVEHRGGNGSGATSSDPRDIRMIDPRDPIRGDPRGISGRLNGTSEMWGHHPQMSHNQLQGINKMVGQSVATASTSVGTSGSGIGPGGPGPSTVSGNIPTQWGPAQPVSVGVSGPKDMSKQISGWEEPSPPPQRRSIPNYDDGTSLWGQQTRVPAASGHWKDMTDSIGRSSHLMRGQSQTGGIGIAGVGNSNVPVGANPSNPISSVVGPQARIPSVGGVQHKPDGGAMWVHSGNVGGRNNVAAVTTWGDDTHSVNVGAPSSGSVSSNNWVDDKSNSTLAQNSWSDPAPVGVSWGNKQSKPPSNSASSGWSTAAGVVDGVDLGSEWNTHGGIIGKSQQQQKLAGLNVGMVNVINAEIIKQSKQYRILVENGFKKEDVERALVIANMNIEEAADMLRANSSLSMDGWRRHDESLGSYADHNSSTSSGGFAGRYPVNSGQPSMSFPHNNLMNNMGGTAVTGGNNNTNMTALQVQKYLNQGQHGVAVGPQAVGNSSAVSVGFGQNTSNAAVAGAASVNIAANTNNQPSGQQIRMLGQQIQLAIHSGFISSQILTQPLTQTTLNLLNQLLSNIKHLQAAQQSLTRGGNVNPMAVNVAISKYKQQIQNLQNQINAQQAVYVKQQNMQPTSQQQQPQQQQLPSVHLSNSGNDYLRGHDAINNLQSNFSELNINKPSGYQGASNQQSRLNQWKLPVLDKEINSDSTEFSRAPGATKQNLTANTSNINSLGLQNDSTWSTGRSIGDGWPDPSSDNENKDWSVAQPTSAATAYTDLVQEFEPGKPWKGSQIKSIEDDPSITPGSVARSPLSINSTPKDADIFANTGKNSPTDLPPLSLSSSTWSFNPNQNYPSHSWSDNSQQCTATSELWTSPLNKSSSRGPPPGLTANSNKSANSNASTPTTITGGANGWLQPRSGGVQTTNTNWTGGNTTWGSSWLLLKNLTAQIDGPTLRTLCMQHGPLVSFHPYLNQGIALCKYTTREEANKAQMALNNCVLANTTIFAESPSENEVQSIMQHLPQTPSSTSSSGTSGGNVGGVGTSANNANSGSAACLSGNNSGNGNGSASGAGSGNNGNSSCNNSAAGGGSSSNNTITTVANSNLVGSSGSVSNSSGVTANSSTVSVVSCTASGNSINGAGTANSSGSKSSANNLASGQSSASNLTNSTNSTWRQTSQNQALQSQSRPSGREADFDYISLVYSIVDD

decrease of the Myc-HPat/HA-GW182 ratio in the immunoprecipitate, AGO1 knockdown cells against dsYFP control cells: 84.6%
decrease of the Myc-HPat/HA-GW182 ratio in the immunoprecipitate, NOT1 knockdown cells against dsYFP control cells: 69.7%
Substance: Myc-tagged HPat (natural protein)
